Source: US10334848B2, “Methods and compositions for weed control using EPSPS polynucleotides” (Monsanto Technology LLC, priority 2014, dated 2019)

B1: SEQ ID NO 3/4: dsRNA trigger: 50mer EPSPS Trigger (SEQ ID NO 3) and Reverse Complement (SEQ ID NO 4), positions 398-447 of Amaranthus palmeri EPSPS cDNA (nucleic acid)
sense: GAACUCUUGGUUUAAAAGUGGAGGAUGAUAGUACAGCCAAAAGGGCAGUC
antisense: GACUGCCCUUUUGGCUGUACUAUCAUCCUCCACUUUUAAACCAAGAGUUC
modifications: double-stranded RNA trigger, further chemistry not given here
B2: SEQ ID NO 5/6: dsRNA trigger: 53mer EPSPS Trigger (SEQ ID NO 5) and Reverse Complement (SEQ ID NO 6), positions 1189-1241 of Amaranthus palmeri EPSPS cDNA (nucleic acid)
sense: GACGUCAACAUGAACAAAAUGCCAGAUGUUGCUAUGACUCUUGCAGUUGUUGC
antisense: GCAACAACUGCAAGAGUCAUAGCAACAUCUGGCAUUUUGUUCAUGUUGACGUC
modifications: double-stranded RNA trigger, further chemistry not given here

Columns and labels:
[1] = test system: glyphosate-resistant Amaranthus palmeri plants (“R-22”); test: Sensitization of glyphosate-resistant Palmer amaranth to glyphosate by topical dsRNA trigger, then WEATHERMAX glyphosate; assay type: in vivo; settings: glyphosate 1.5 lb/ac one day after, four replications
Description: Double stranded RNA (dsRNA) triggers comprising polynucleotide sequences of SEQ ID NOs: 3 and 4, SEQ ID NOs: 5 and 6, and SEQ ID NOs: 7 and 8 were produced and the triggers were formulated with 0.5% SILWET® L-77, 2% AMS, and 20 mM phosphate buffer to the desired concentration. The trigger formulations were then topically applied to the leaves of glyphosate-resistant Amaranthus palmeri plants (“R-22”). Control plants were either untreated or treated with the 0.5% SILWET® L-77, 2% AMS, and 20 mM phosphate buffer solution. One day after treatment, WEATHERMAX® brand glyphosate herbicide (RU Wmax, Monsanto, St Louis, Mo.) was applied to the plants at 1.5 lb/ac. 11 days after treatment (DAT) with EPSPS trigger polynucleotides the percent growth reduction of the dsRNA treated plants was assessed relative to untreated control plants by visual score. At 14 DAT the fresh weight of the dsRNA treated and control plants were determined. Four replications were performed per treatment. […] See also FIG. 1.

[2] = test system: glyphosate-resistant Waterhemp (Amaranthus rudis); test: Sensitization of glyphosate-resistant Waterhemp to glyphosate by topical dsRNA trigger (Example 3); assay type: in vivo; settings: 8 nmol trigger; glyphosate 1.5 lb/ac one day after; 14 DAT; compared to plants treated with glyphosate alone
Description: The efficacies of mid-sized polynucleotide trigger molecules comprising SEQ ID NOs: 3 and 4 or SEQ ID NOs: 5 and 6, were assessed in glyphosate-resistant Waterhemp (Amaranthus rudis) in relation to a 24-mer trigger comprising SEQ ID NOs: 7 and 8. dsRNA triggers comprising polynucleotide sequences of SEQ ID NOs: 3 and 4, SEQ ID NOs: 5 and 6, and SEQ ID NOs: 7 and 8 were produced and the triggers were each formulated with 0.5% SILWET® L-77, 2% AMS, and 20 mM phosphate buffer to a concentration of 8 nmol. The trigger formulations were then topically applied to the leaves of glyphosate-resistant Waterhemp. Control plants were either untreated or treated with a solution of 0.5% SILWET® L-77, 2% AMS, and 20 mM phosphate buffer. One day after treatment with the trigger formulation, WEATHERMAX® brand glyphosate herbicide was applied to the plants at 1.5 lb/ac. Four replications were performed per treatment. The fresh weight of the plants was determined 14 DAT with EPSPS trigger polynucleotides and the fresh weight % compared to control plants (treated with WEATHERMAX® brand glyphosate herbicide alone) was calculated.

[3] = test system: glyphosate-resistant Amaranthus palmeri plants (“R-22”); settings: stated as known; cited from earlier work
[4] = test system: glyphosate-resistant Waterhemp plants (“WH13”); settings: stated as known; cited from earlier work
EPSPS mRNA = EPSPS mRNA reduction in Palmer protoplasts; assay type: cell-based; settings: 6 ug dose of dsRNA trigger; Amaranthus palmeri protoplasts; FIG. 2
Description: The activities of mid-sized bioactive polynucleotide trigger molecules corresponding to SEQ ID NOs: 3 and 4 or SEQ ID NOs: 5 and 6 were assessed in Amaranthus palmeri protoplasts. A 6 ug dose of each dsRNA trigger (SEQ ID NO 3/4 or SEQ ID NO 5/6) was added to Amaranthus palmeri protoplasts.

[5] = test system: glyphosate-resistant Waterhemp plants (“WH13”); test: Sensitization of glyphosate-resistant Waterhemp WH13 to glyphosate, 2-16 nmol trigger (Example 5, FIG. 3); assay type: in vivo; settings: 2, 4, 8 or 16 nmol trigger, glyphosate 1.5 lb/ac one day after, plants at 14 days after treatment
Description: The efficacies of mid-sized bioactive polynucleotide trigger molecules
Double stranded RNA (dsRNA) triggers comprising polynucleotide sequences of SEQ ID NOs: 3 and 4, SEQ ID NOs: 5 and 6, and SEQ ID NOs: 7 and 8 were produced and the bioactive trigger polynucleotides were formulated with 0.5% SILWET® L-77, 2% AMS, and 20 mM phosphate buffer to a concentration of 2 nmol, 4 nmol, 8 nmol or 16 nmol. The trigger formulations were then topically applied to the leaves of glyphosate-resistant Waterhemp plants (“WH13”). Control plants were either untreated or treated with the 0.5% SILWET® L-77, 2% AMS, and 20 mM phosphate buffer solution. One day after treatment, WEATHERMAX® brand glyphosate herbicide (RU Wmax, Monsanto, St Louis, Mo.) was applied to the plants at 1.5 lb/ac. Four replications were performed per treatment.

[6] = test system: glyphosate-resistant Waterhemp plants (“WH13”); test: Tiling of EPSPS cDNA: dsRNA trigger testing with glyphosate, fresh weight (Example 7, FIG. 4); assay type: in vivo; settings: 8 nmol trigger, glyphosate 1.5 lb/ac one day after, 14 days after treatment, three replications
Description: The EPSPS cDNA of SEQ ID NO: 1 was tiled across the entire length of the cDNA to identify target sequences for bioactive trigger polynucleotides covering as shown in Table 5. The target nucleotide sequence were chosen to be approximately 47-62 bp in length. Bioactive trigger polynucleotides comprising a nucleotide sequence having at least 85% identity or complementarity to SEQ ID NOs: 36-66 were tested for the ability to sensitize glyphosate-resistant Waterhemp to glyphosate.
Double stranded RNA (dsRNA) triggers comprising polynucleotide sequences corresponding to SEQ ID NOs: 36-62 were produced and the bioactive trigger polynucleotides were formulated with 0.5% SILWET® L-77, 2% AMS, and 20 mM phosphate buffer to a final concentration of 8 nmol. The trigger formulations were then topically applied to the leaves of glyphosate-resistant Waterhemp plants (“WH13”). Control plants were either untreated or treated with the formulation 0.5% SILWET® L-77, 2% AMS, and 20 mM phosphate “buffer” solution. Additionally dsRNA comprising SEQ ID NOs: 7 and 8 (24-mer EPSPS trigger) was applied as a control. One day after treatment, WEATHERMAX® brand glyphosate herbicide (RU Wmax, Monsanto, St Louis, Mo.) was applied to the plants at 1.5 lb/ac.
Three replications were performed per treatment.

Row | Molecule | visual 11-DAT Average (percent growth reduction relative to untreated control plants by visual score) ([1]; 2 nmole trigger) | Fresh weight 14-DAT Average ([1]; 2 nmole trigger) | visual 11-DAT Average (percent growth reduction relative to untreated control plants by visual score) ([1]; 4 nmole trigger) | Fresh weight 14-DAT Average ([1]; 4 nmole trigger) | visual 11-DAT Average (percent growth reduction relative to untreated control plants by visual score) ([1]; 8 nmole trigger) | Fresh weight 14-DAT Average ([1]; 8 nmole trigger) | visual 11-DAT Average (percent growth reduction relative to untreated control plants by visual score) ([1]; 16 nmole trigger) | Fresh weight 14-DAT Average ([1]; 16 nmole trigger) | % Control Fresh wt. average [2] | sensitization of glyphosate-resistant Palmer amaranth to glyphosate, prior knowledge (in words) [3] | sensitization of glyphosate-resistant Waterhemp to glyphosate, prior knowledge (in words) [4] | EPSPS mRNA reduction vs. control (EPSPS mRNA) | sensitization of glyphosate-resistant Waterhemp plants to glyphosate (in words) [5] | efficacy in sensitizing glyphosate-resistant Waterhemp to glyphosate (in words, from fresh weight) [6]
1 | SEQ ID NO 7/8: dsRNA 24mer EPSPS Trigger (SEQ ID NO 7) and Reverse Complement (SEQ ID NO 8), known to sensitize glyphosate-resistant weeds; control (sense AUGCCAGAUGUUGCUAUGACUCUU; antisense AAGAGUCAUAGCAACAUCUGGCAU; listed as RNA, chemistry not given here) [reference compound] | 47.5% | 19.0 | 88.8% | 95.3 | 90.0% | 91.8 | 85.8% | 93.7 | 85% | known to sensitize glyphosate-resistant Palmer amaranth to glyphosate | known to sensitize glyphosate-resistant Waterhemp to glyphosate | – | – | –
2 | B1 | 46.3% | 24.0 | 28.8% | 94.7 | 88.3% | 88.4 | 90.0% | 97.0 | 78% | – | – | 69% | sensitize glyphosate-resistant Waterhemp plants to glyphosate | good efficacy
3 | B2 | 48.8% | 18.2 | 41.3% | 94.0 | 93.8% | 96.2 | 81.3% | 90.7 | 83% | – | – | 84% | sensitize glyphosate-resistant Waterhemp plants to glyphosate | good efficacy
